The record followed here is paper PMC10177866, “Computational Insights and In Silico Characterization of a Novel Mini-Lipoxygenase from Nostoc Sphaeroides and Its Application in the Quality Improvement of Steamed Bread” (International Journal of Molecular Sciences, 2023).

Usually Km stands for the concentration of substrate that gives half-maximal velocity. In general, Vmax refers to the top rate of the reaction or transport when substrate is in excess. As usually defined, the kcat is the number of substrate molecules converted per active site and unit of time at saturation. In general, kcat/Km refers to the second-order rate constant that governs catalysis at low substrate concentration.

The target of one data set is T1, NsLOX (Nostoc sphaeroides, UniProt A0A5P8W1C8).
T1 construct: gene GXM_03308; full length, 455 residues (52 kDa) plus 2 kDa His tag from pET-28a(+) NdeI/XhoI, tag kept; codon-optimised synthetic gene; E. coli BL21(DE3); Ni-NTA; about 54 kDa; C-terminal Ile455; no N-terminal PLAT domain
T1 sequence (A0A5P8W1C8 1-455): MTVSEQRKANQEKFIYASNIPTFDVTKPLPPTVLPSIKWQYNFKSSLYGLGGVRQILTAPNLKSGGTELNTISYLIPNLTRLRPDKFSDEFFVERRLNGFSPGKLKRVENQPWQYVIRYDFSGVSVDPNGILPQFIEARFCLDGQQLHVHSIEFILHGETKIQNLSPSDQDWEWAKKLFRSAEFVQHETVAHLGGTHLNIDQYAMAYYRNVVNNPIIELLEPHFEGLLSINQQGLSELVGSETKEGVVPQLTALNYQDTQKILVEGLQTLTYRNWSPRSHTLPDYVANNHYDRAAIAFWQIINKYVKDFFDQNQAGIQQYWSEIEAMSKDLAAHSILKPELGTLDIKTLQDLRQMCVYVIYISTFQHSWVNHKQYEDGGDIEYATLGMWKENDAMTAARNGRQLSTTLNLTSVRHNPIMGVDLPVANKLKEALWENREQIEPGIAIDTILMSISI
The experiment in a line: absorbance at […] nm, Lineweaver-Burk. The class given is biochemical. Conditions: optimum assay conditions: 20 mM Tris-HCl pH 8.0, 15 °C, substrate 20-100 μM.

Substrate in the data set “purified protein”: CCCCC/C=C\C/C=C\C/C=C\C/C=C\CCCC(=O)O
The data set can be described thus: purified protein. The class given is biochemical, Nostoc sphaeroides. Particulars: optimum assay conditions: 20 mM Tris-HCl pH 8.0, 15 °C, substrate 20-100 μM.

`CC/C=C\C/C=C\C/C=C\CCCCCCCC(=O)O` [ALA, α-Linolenic acid]: the Michaelis-Menten constant (Km) at NsLOX (Km above tested substrate range) came to 151 ± 6.39 µM.
`CCCCC/C=C\C/C=C\CCCCCCCC(=O)O` [LA, Linoleic acid]: the Km at NsLOX stood at 19.5 ± 1.24 µM.

B1: NsLOX (Nostoc sphaeroides CCNUC1) (protein)
chain: T1 sequence (A0A5P8W1C8 1-455)
notes: full length, 455 residues (52 kDa) plus 2 kDa His tag from pET-28a(+) NdeI/XhoI, tag kept; codon-optimised synthetic gene; E. coli BL21(DE3); Ni-NTA; about 54 kDa; C-terminal Ile455; no N-terminal PLAT domain
Take B1: in the data set “purified protein”, the Km was 571.22 ± 26.88 µM, the Vmax is 30.6 µM/min, the kcat was 7300 ± 145 s⁻¹ and the kcat/Km came out at 1.28e+07 M⁻¹ s⁻¹.
